Measured values reported in US20120329995A1.

Molecular target: human CD3 (human) (UniProt P07766)
Test: flow cytometry, serially diluted antibody on Jurkat cells, PE goat anti-mouse IgG

human CD3 (human), sequence (P07766 23-207): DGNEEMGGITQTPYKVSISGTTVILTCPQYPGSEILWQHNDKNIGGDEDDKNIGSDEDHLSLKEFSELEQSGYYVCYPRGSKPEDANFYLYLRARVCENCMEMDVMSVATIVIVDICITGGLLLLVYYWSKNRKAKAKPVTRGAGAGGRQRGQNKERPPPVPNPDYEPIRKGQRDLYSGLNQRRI

antibody concentration giving comparable binding: 0.4 ng/mL
Substance: OKT3 antibody (mouse anti-human CD3, recombinant, made in 293T cells from pME-wtOKT3 HC and pME-wtOKT3 LC)
